Here are results for 3 molecules from patent US20250189530A1 (STCUBE, published 2025).

Read-outs that look alike come from different tables or passages of the source.

The target of assay [1] is T1, hBTN1A1 ICD (human, UniProt Q13410 270-526).
T1 sequence: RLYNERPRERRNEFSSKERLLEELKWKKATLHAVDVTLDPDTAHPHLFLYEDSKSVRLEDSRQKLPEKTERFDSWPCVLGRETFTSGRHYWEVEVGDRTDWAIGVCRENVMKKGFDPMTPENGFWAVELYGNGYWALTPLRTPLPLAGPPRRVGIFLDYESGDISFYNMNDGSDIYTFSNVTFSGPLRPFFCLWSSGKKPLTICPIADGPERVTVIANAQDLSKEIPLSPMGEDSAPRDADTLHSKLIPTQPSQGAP
Nature of the assay: ELISA clone screen, GenScript, negative control.

Assay [2] has as its target T2, denatured hBTN1A1 ICD (human, UniProt Q13410 270-526).
T2 construct: Same protein as hBTN1A1 ICD, denatured before the ELISA; also called hBTN1A1 ICD denatured; Denatured ICD
T2 sequence: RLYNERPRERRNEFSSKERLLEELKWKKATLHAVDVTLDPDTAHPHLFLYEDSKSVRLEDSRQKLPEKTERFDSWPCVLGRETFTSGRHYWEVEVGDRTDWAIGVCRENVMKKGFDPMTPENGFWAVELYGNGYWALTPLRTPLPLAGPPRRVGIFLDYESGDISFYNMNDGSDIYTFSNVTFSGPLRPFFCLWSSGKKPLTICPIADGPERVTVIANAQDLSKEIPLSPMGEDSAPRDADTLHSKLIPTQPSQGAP
The assay is described as follows: ELISA clone screen, GenScript, negative control. A general note: ELISA stands for enzyme-linked immunosorbent assay.

In assay [3] the target is T3, BTN1A1 Peptide 4 (human).
T3 construct: also called BTN1A1-pep4- WT; Pep4
T3 peptide: EVEVGDRTDWAIGVC
Nature of the assay: ELISA clone screen, GenScript, negative control.

The target of assay [4] is T1, hBTN1A1 ICD. Nature of the assay: ELISA clone screen, STCube, negative control.
In assay [5] the target is T2, denatured hBTN1A1 ICD. Nature of the assay: ELISA clone screen, STCube, negative control.
For assay [6], the target named is T3, BTN1A1 Peptide 4. Nature of the assay: ELISA clone screen, STCube, negative control.
Assay [7] has as its target T4, hBTN1A1-His (human, UniProt Q13410).
T4 construct: also called human BTN1A1-His
T4 sequence (antigen, looked up): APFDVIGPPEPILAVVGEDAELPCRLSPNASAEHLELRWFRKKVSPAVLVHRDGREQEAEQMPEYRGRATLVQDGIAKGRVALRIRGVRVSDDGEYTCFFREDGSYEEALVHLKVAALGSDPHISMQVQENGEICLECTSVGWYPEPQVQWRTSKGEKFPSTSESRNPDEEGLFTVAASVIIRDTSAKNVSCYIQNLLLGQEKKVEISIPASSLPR
The assay is described as follows: ELISA, titration of purified antibody.

The target in the next assay is KLH Only (keyhole limpet). Nature of the assay: ELISA clone screen.
Assay [8] addresses T4, hBTN1A1-His. The assay is described as follows: ELISA clone screen.
The target of a further assay is T5, ECD1 Peptide.
T5 construct: also called BTN1A1 ECD1
T5 peptide: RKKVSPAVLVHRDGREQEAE
Nature of the assay: ELISA clone screen.

The target in assay [9] is T4, hBTN1A1-His. Nature of the assay: ELISA, titration of purified antibody. The source holds these as a separate data set.

KLH Only (keyhole limpet), sequence (Q10583 17-3414): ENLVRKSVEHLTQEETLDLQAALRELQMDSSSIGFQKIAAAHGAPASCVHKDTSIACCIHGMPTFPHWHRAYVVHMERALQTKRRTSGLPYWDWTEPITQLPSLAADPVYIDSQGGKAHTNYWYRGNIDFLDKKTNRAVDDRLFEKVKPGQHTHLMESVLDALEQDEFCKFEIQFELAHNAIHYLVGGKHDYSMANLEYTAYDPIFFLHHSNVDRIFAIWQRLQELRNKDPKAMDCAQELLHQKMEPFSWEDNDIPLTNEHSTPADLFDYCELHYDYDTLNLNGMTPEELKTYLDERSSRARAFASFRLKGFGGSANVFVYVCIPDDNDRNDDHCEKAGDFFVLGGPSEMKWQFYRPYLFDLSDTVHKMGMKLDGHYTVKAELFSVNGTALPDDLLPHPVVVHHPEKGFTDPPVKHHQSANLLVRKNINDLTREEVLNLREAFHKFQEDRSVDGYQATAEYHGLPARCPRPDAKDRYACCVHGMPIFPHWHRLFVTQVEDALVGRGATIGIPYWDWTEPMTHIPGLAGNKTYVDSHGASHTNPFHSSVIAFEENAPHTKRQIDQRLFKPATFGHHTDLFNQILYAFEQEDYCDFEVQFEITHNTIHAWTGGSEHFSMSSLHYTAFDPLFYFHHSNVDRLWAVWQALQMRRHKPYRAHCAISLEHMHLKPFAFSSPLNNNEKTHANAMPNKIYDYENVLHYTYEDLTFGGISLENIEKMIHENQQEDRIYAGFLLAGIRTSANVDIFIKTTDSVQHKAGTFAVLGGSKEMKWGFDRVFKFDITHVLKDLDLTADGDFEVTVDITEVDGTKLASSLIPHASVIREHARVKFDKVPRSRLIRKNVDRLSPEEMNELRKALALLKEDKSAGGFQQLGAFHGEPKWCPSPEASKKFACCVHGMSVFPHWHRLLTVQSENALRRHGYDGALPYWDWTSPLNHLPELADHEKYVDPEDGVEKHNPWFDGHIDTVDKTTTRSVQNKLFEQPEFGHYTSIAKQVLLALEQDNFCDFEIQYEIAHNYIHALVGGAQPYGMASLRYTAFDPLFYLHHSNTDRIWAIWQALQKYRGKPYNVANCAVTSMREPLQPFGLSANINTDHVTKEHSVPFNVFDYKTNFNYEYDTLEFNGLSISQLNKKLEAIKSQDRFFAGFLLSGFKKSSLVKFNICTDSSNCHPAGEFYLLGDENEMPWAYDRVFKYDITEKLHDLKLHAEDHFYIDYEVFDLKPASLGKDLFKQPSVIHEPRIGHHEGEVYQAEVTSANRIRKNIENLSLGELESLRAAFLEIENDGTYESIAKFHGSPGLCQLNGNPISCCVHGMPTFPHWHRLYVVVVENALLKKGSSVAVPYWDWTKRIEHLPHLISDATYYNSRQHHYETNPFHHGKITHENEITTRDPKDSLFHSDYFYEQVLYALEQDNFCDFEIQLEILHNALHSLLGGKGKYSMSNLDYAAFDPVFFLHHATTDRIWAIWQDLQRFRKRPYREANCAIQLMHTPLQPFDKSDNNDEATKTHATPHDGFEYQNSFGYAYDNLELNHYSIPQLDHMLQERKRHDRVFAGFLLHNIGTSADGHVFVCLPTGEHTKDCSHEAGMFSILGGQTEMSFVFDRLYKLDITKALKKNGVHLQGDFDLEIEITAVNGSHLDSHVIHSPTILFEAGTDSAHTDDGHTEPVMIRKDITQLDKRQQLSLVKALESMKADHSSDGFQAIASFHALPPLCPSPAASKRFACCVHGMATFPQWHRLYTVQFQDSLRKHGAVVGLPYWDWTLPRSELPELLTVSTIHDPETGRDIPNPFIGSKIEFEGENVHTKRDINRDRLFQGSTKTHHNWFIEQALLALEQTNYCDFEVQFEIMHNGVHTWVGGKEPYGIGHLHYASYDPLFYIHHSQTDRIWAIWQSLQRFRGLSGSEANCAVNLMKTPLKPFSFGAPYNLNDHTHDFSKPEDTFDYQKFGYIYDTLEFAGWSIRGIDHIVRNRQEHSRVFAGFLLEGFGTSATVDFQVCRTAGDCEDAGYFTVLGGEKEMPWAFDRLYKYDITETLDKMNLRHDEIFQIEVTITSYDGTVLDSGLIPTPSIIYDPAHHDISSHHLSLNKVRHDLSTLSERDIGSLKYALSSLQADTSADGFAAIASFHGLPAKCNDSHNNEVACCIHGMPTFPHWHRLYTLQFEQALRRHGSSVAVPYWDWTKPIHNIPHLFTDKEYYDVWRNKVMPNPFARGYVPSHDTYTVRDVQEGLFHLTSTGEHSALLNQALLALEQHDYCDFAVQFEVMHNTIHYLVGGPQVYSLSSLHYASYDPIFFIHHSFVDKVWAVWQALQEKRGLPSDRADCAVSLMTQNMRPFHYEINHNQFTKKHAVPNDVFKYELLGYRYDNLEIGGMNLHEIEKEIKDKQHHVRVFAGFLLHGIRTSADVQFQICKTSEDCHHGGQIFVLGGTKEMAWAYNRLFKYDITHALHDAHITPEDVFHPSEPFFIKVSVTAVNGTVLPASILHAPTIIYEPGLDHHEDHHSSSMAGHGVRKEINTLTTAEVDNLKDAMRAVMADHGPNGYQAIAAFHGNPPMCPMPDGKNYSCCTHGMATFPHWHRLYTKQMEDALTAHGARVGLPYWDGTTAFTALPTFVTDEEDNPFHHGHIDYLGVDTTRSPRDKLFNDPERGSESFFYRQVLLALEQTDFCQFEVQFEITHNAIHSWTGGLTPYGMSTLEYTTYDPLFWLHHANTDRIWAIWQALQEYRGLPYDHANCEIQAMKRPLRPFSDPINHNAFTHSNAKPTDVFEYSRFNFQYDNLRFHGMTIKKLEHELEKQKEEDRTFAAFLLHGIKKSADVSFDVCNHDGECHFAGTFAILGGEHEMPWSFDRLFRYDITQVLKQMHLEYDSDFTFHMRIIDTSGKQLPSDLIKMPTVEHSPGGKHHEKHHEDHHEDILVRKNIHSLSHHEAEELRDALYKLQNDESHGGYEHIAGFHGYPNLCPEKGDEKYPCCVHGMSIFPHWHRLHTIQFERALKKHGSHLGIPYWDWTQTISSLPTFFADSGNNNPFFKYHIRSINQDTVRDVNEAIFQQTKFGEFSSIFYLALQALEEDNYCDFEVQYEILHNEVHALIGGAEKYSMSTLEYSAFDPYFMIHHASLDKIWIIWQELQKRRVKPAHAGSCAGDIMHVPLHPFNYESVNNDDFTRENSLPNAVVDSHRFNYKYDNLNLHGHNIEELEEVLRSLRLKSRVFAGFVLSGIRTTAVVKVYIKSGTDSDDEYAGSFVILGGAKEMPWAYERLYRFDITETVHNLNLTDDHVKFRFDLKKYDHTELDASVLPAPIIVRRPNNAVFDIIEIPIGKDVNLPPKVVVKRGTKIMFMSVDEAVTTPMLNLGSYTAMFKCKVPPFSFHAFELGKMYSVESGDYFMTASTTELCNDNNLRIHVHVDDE

Take “Negative (control of the clone screen ELISA)”: the ELISA signal came out at 0.063 with hBTN1A1 ICD [1]; 0.062 in the assay with denatured hBTN1A1 ICD [2]; 0.074 in the assay with BTN1A1 Peptide 4 [3]; 0.04 in the assay with hBTN1A1 ICD [4]; 0.041 in the assay with denatured hBTN1A1 ICD [5]; 0.048 with BTN1A1 Peptide 4 [6].

B1: STC85F1-1 (antibody, V domains shown)
VH: QSLEESGGRLVTPGGSLTLTCTVSGIDLSRYGVNWVRQAPGKGLEWIGYIGTTSNTYYASWAKGRFTISKTSSTTVDLKMTSLTTEDTATYFCARSVVSPSNSSFWGQGTLVTVSS
VL: DPVMTQTPSSTSAAVGGTVTINCQSSQSVYNNKNLSWFQQKPGQPPKLLIYRASTLPSGVPSRFKGSGSGTQFTLTISDLECDDAATYYCAGGYSGDINVFGGGTEVVVK
notes: From immunized New Zealand rabbits; IgG heavy chain and Kappa light chain; Variable domains without signal peptide; also called clone #85F1-1
Take B1: the “EC50 (read off the curve)” value with hBTN1A1-His [7] is around 0.02 µg/mL. Further, the “O.D. 450 nm” value with KLH Only turned out to be 0.051; with hBTN1A1-His [8] it was 2.91; with ECD1 Peptide it was 3.18.

B2: STC43G3-1 (antibody, V domains shown)
VH: QSLEESGGRLVTPGTPLTLTCTVSGIDLSRYGVNWVRQAPGKGLEWIGYIGTTGNTYYASWVNGRFTISKTSTTVELKMTSLTAADTATYFCARSVVSPSNSSFWGQGTLVTVSS
VL: DPVMTQTPSSTSAAVGGTVTINCQSSQSVYNNNNLSWFQQKPGQPPKLLIYRASKLPSGVPPRFSGSGSGTQFTLTISSVQCDDAATYFCAGGYSGDINVFGGGTEVVVK
notes: From immunized New Zealand rabbits; IgG heavy chain and Kappa light chain; Variable domains without signal peptide; also called clone #43G3-1
Turning to B2, the “O.D. 450 nm” value came out at 0.052 with KLH Only, 2.1 with hBTN1A1-His [8] and 2.66 with ECD1 Peptide. Also, the “EC50 (read off the curve)” value in the assay with hBTN1A1-His [9] was around 0.02 µg/mL.

Usually EC50 (read off the curve) stands for the concentration that produces a half-maximal response. Lower therefore signals higher potency in that assay.
